# Data from publication PMC6327110, “Species-Specific Functional Regions of the Green Alga Gamete Fusion Protein HAP2 Revealed by Structural Studies” (Structure(London, England:1993), 2019).
# Where “and” joins values, the source holds several entries; their conditions need not be identical. Equal entries are not always repeated.
# B1: Chlamydomonas reinhardtii HAP2 ectodomain (residues 23-592) (domain or fragment)
# chain: EVIASGRLEKCVVDGVTEELDCQEKVVVTLTVGNGQSLQTEALEFSLSCLNSPDGRCPCSCSAADPTCACRDLAAPLRVSLTKSPLWASYPLQYLSSFNWKPLEVILRPSNKVCKDGDWEDSPTCGWFSQGGVRVADSQGFCCECSSSQVWDDTFGSSKERTRANLDCDFWSDPLDILIGRKPVSAHCLTFDPQWYSGYELGAASLQFEIAITVEVPTAPSPTTATTSATPRTNNSSSANSTNSTNSPAPQFLSPPAPSTREVLHLGPSVPLASSASRLLSAKLLGDLAMYTQLPAISNQVLMVPQPPAAAAATGSPLDATLATNRSAWMLLDKTMLSMDGLACDKVGTGFSAFRYQPSGCGRAPQACLSGQLKDLWEADLARIADGRVPLYMITRFTGGSDTTLQSFSGGPLSFALPVTSHSQSLVTLSVAADGVRLVTNRSPGKITGAAVCRFAGTSCGGFEAVAARGYIYVNITNTGRLDSDYTLTVSNCSSNVRPIEARTLAVRAGSAASLDPPMELYVEDQAAAAARTCTVSLYDSVGAVTDSLTLSFYTNATQLVVKPSGGYNGDDDDK
# modifications: N-linked glycan attached to Asn578; further N-linked glycans marked in Figure 1C
# notes: HAP2, Chlamydomonas reinhardtii, Uniprot A4GRC6, soluble C-terminally truncated ectodomain, residues 23-592, ending at G592; enterokinase cleavage site immediately downstream of HAP2 G592, before the double strep-tag; Secreted from the vector pMT/BiP/TwinStrep; The strep tag was removed with enterokinase; Trimer in the crystal; trimers, hexamers and remaining monomers in solution; also called …
# Biological target: the molecule itself
# Test: crystal structure; crystals grown from the HAP2-scFv A20 complex, sitting drop, 293K, 0.2M LiSO4, 0.1M Tris-HCl pH 8.5, 25% w/v PEG 5000 MME; space group P6_(3)22, 2.6 Å; no density for the scFv
protein,measurement,value
B1,stoichiometry N,3 and 6
